This note sets out measurements from patent US20250090699A1, “FAP TARGETING CYCLIC PEPTIDES AND CONJUGATES THEREOF” (Novartis AG, priority 2023, published 2025).

What is called Kd is the free concentration of one partner at which half of the binding sites on the other are occupied at equilibrium, for simple one-to-one binding. By IC50 is commonly meant the concentration that inhibits the measured activity by half.

Assay [1] addresses T1, mouse FAP (Mus musculus, UniProt P97321).
T1 construct: biotinylated His, Avi tag, mouse FAP (26-761, FAP-M82Q5); His; Avi tag (biotinylated); purchased AcroBiosystems FAP-M82Q5
T1 sequence (P97321 26-761): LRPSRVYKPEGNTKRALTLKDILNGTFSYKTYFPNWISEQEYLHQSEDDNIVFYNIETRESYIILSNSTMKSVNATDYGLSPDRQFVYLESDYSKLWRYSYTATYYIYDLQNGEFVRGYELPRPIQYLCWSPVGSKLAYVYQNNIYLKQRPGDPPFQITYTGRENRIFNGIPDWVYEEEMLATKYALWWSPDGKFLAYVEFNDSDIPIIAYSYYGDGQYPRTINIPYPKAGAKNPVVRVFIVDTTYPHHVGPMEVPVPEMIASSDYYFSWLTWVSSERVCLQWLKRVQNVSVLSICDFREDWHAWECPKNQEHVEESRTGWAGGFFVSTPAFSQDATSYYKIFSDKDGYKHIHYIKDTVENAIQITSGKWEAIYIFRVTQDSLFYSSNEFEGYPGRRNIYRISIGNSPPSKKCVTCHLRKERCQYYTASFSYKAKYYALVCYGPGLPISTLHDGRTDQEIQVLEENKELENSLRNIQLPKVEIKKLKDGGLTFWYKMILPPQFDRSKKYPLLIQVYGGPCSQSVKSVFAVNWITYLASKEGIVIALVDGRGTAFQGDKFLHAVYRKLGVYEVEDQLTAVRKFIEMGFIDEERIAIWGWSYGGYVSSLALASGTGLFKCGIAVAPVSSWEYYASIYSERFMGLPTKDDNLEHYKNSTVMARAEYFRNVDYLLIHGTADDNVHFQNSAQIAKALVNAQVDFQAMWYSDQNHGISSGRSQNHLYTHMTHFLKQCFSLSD
Nature of the assay: Surface plasmon resonance (SPR) for peptide affinity, mouse FAP. In kind it is binding. The method in brief:
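KD values come from a 1:1 kinetic fit of single-cycle SPR data: 8 peptide concentrations, 25 °C, 30 μL/min, HEPES-buffered saline pH 7.6 with 2% DMSO. Targets were His/Avi-tagged human (26-760) or mouse (26-761) FAP, amine-coupled to CM5 or held on a CAPture chip.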
On the technique in general: Surface plasmon resonance follows binding to a sensor surface in real time, without labels.

The target in another assay is T2, human FAP (Homo sapiens, UniProt Q12884).
T2 construct: the biotinylated His, Avi tag, human FAP (26-760, FAP-H82Q6); His; Avi tag (biotinylated); purchased AcroBiosystems FAP-H82Q6
T2 sequence (Q12884 26-760): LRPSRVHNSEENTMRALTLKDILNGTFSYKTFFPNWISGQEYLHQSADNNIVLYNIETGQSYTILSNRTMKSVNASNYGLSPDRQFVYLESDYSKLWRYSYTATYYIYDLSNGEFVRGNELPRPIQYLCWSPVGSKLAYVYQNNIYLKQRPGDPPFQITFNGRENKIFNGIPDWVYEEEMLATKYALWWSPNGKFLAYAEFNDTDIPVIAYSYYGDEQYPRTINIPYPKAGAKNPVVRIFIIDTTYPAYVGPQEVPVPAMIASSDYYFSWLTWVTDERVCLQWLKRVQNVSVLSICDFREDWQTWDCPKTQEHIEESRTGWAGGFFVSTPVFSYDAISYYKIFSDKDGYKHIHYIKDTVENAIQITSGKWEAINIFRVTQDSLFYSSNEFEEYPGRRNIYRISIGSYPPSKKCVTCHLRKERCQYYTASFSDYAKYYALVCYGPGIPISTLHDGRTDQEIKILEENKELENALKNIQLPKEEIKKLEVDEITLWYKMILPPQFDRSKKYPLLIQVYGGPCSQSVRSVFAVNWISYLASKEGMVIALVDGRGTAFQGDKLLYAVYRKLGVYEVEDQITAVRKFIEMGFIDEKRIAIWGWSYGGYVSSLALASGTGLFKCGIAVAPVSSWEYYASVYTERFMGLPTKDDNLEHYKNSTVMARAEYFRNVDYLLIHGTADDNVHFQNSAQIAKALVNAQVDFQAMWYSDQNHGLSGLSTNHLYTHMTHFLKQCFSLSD
Nature of the assay: Enzymatic FAP competition assay (Z-Gly-Pro-AMC fluorescence), human FAP. In kind it is biochemical. Particulars: read-out: h. FAP, Enz., IC50. The method, boiled down:
(§1)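 IC50 values come from curve fitting of duplicate % inhibition data on AMC fluorescence (ex 380, em 460 nm) after 4 h at 22-24° C with 50 μM Z-Gly-Pro-AMC. Beforehand, peptides up to 1 μM (14 levels) sat 24 h with 0.01 nM human (26-760) or mouse (26-761) tagged FAP in phosphate buffer pH 7.5, NaCl, Tween20, 1% DMSO.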

The target in assay [2] is T1, mouse FAP. The assay can be described thus: Enzymatic FAP competition assay (Z-Gly-Pro-AMC fluorescence), mouse FAP. In kind it is biochemical. Particulars: read-out: m. FAP, Enz., IC50. The method, boiled down: as §1

Structures can show the parent of a compound that is named as a salt. Starred links: 1 amine or outer side, 2 acyl side, 3 side chain; linkers in the order of their positions; H or OH if unused. Non-standard residues stand in square brackets, D forms with d. Residues, ends and D or L forms follow the SMILES beside them. *: point of attachment. F(4OEtNHDOTA-Ga) = gallium complex of (S)-2,2',2''-(10-(2-((2-(4-(2-amino-2-carboxyethyl)phenoxy)ethyl)amino)-2-oxoethyl)-1,4,7,10-tetraazacyclododecane-1,4,7-triyl)triacetic acid (Phe with 4-O-ethylamino-DOTA-Ga), O=C([O-])CN1CCN(CC(=O)[O-])CCN(CC(=O)NCCOc2ccc(C[C@H](N[*:1])C(=O)[*:2])cc2)CCN(CC(=O)[O-])CC1.[Ga+3]; F(4amDOTA-Lu) = lutetium complex of (S)-2,2',2''-(10-(2-((4-(2-amino-2-carboxyethyl)benzyl)amino)-2-oxoethyl)-1,4,7,10-tetraazacyclododecane-1,4,7-triyl)triacetic acid (Phe with 4-aminomethyl-DOTA-Lu), O=C([O-])CN1CCN(CC(=O)[O-])CCN(CC(=O)NCc2ccc(C[C@H](N[*:1])C(=O)[*:2])cc2)CCN(CC(=O)[O-])CC1.[Lu+3]; K(COpipzaa) = N6-(4-(carboxymethyl)piperazine-1-carbonyl)-L-lysine, O=C(NCCCC[C@H](N[*:1])C(=O)[*:2])N1CCN(CC(=O)[*:3])CC1; COpipzaa = 4-(carboxymethyl)piperazine-1-carbonyl, O=C(O)CN1CCN(C(=O)*)CC1; F(4amPEG2NHRDOTAGA-Lu) = Phe with 4-aminomethyl-PEG2-NH-DOTAGA, Lu complex; hS(Pr) = O-propyl-L-homoserine, CCCOCC[C@H](N[*:1])C(=O)[*:2]; DOTA = O=C(O)CN1CCN(CC(=O)O)CCN(CC(=O)*)CCN(CC(=O)O)CC1; 3Pal(6-NH2) = Nc1ccc(C[C@H](N)C(=O)O)cn1; AEF = NCCOc1ccc(C[C@H](N)C(=O)O)cc1; NMeCha = CN[C@@H](CC1CCCCC1)C(=O)O; NMeF = CN[C@@H](Cc1ccccc1)C(=O)O; Ahp(2) = CCCCC[C@H](N)C(=O)O

As for “Gly-Gly-NMePhe-F(4amDOTA-Lu)-Ahp-Trp-Gly-Tyr-Asp-D-Pro (cyclo(GG[NMeF][F(4amDOTA-Lu)][Ahp(2)]WGYD[dP]); also: Lu complex) [Example C16]”, in the assay with mouse FAP [1], the Kd worked out at 0.4 nM. In addition, the results for the IC50 with human FAP and with mouse FAP [2] were 0.084 nM and 0.29 nM, respectively.
As to `CCCCC[C@@H]1NC(=O)[C@H](Cc2ccc(O)cc2)NC(=O)[C@H](CC2CCCCC2)N(C)C(=O)CNC(=O)[C@H](CCCCN)NC(=O)[C@H]2CCCN2C(=O)[C@H](CC(=O)O)NC(=O)[C@H](Cc2ccc(O)cc2)NC(=O)CNC(=O)[C@H](Cc2c[nH]c3ccccc23)NC1=O` [Example A43, Lys-Gly-NMecHexA-Tyr-Ahp-Trp-Gly-Tyr-Asp-D-Pro, TFA salt] (cyclo([Ahp(2)]WGYD[dP]KG[NMeCha]Y)), binding at mouse FAP [1] was characterised by a dissociation constant (Kd) of 0.188 nM. Moreover, the results for the IC50 at human FAP and at mouse FAP [2] were 0.069 nM and 0.189 nM, respectively.
The like results for “Gly-Gly-NMePhe-F(4OEtNHDOTA-Ga)-Ahp-Trp-Gly-K(COpipzaa)-Asp-D-Pro (cyclo(GG[NMeF][F(4OEtNHDOTA-Ga)][Ahp(2)]WG[K(COpipzaa)]D[dP]); also: Ga complex of DOTA) [Example C50]” were, in that order, less than 0.02 nM, 0.046 nM and 0.052 nM.
The like results for `CCCCC[C@@H]1NC(=O)[C@H](Cc2ccc(OCCNC(=O)CN3CCN(CC(=O)O)CCN(CC(=O)O)CCN(CC(=O)O)CC3)cc2)NC(=O)[C@H](Cc2ccccc2)N(C)C(=O)CNC(=O)CNC(=O)[C@H]2CCCN2C(=O)[C@H](CC(=O)O)NC(=O)[C@H](Cc2ccc(N)nc2)NC(=O)CNC(=O)[C@H](Cc2c[nH]c3ccccc23)NC1=O` [Example B24, Gly-Gly-NMePhe-F(4OEtNHDOTA)-Ahp-Trp-Gly-3PyA(6NH2)-Asp-D-Pro, TFA salt] (cyclo([AEF](DOTA)[Ahp(2)]WG[3Pal(6-NH2)]D[dP]GG[NMeF])) were, in that order, 0.066 nM, 0.012 nM and 0.108 nM.
At mouse FAP [1], `CCCCC[C@@H]1NC(=O)[C@H](Cc2ccc(OCCNC(=O)CN3CCN(CC(=O)O)CCN(CC(=O)O)CCN(CC(=O)O)CC3)cc2)NC(=O)[C@H](Cc2ccccc2)N(C)C(=O)CNC(=O)CNC(=O)[C@H]2CCCN2C(=O)[C@H](CC(=O)O)NC(=O)[C@H](Cc2ccc(O)cc2)NC(=O)CNC(=O)[C@H](Cc2c[nH]c3ccccc23)NC1=O` [Example B23, Gly-Gly-NMePhe-F(4OEtNHDOTA)-Ahp-Trp-Gly-Tyr-Asp-D-Pro, TFA salt] (cyclo([AEF](DOTA)[Ahp(2)]WGYD[dP]GG[NMeF])) had a Kd of 0.077 nM. Also, the 50% inhibitory concentration (IC50) at human FAP worked out at 0.012 nM; on mouse FAP [2], 0.059 nM.
Taken in the same sequence, the figures for “Gly-Gly-NMePhe-F(4amPEG2NHRDOTAGA-Lu)-hS(Pr)-Trp-Gly-K(COpipzaa)-Asp-D-Pro (cyclo(GG[NMeF][F(4amPEG2NHRDOTAGA-Lu)][hS(Pr)]WGK(COpipzaa)D[dP]); also: Lu complex) [Example C33]” were less than 0.02 nM, 0.012 nM and 0.026 nM.
